Results from US20170119830A1 (REGENTS OF THE UNIVERSITY OF MINNESOTA, published 2017).

How the values were obtained:
mesothelin (MSLN) = mesothelin (MSLN) (UniProt Q13421); experiment: 4 C cell binding assay on Panc-1 (MSLN strongly-positive) cells, E4 qPCR
[1] = molecular target: T1, AdML-5WT, control adenovirus with the native (wild type) Ad5 fiber (adenovirus type 5, UniProt P11818 1-581); experiment: cell binding assay, 10 vp/cell, 2 h, 4 C, E4 qPCR (FIG. 26)
T1 construct: The whole virion stood in the assays; also called AdML-WT; wild type fiber virus
T1 sequence: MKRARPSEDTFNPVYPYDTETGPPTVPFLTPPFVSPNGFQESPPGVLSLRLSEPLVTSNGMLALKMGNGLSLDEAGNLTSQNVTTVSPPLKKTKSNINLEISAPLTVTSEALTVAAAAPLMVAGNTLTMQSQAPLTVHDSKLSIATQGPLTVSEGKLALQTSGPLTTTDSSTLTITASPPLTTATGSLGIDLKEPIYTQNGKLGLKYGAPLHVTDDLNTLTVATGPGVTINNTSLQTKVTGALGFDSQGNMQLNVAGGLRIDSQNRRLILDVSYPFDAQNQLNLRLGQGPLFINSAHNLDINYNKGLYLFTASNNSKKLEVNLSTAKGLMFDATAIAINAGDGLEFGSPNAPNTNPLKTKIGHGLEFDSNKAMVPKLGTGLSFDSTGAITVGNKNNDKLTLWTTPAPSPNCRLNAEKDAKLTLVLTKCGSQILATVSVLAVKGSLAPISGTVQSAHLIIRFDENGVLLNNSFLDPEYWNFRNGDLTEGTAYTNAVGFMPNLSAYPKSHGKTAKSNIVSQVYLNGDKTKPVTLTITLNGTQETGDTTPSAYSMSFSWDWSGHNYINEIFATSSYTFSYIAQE

CD133 (Prominin-1) [2] = molecular target: T2, CD133 (Prominin-1) (UniProt O43490 20-865); experiment: cell-based or functional assay
T2 sequence: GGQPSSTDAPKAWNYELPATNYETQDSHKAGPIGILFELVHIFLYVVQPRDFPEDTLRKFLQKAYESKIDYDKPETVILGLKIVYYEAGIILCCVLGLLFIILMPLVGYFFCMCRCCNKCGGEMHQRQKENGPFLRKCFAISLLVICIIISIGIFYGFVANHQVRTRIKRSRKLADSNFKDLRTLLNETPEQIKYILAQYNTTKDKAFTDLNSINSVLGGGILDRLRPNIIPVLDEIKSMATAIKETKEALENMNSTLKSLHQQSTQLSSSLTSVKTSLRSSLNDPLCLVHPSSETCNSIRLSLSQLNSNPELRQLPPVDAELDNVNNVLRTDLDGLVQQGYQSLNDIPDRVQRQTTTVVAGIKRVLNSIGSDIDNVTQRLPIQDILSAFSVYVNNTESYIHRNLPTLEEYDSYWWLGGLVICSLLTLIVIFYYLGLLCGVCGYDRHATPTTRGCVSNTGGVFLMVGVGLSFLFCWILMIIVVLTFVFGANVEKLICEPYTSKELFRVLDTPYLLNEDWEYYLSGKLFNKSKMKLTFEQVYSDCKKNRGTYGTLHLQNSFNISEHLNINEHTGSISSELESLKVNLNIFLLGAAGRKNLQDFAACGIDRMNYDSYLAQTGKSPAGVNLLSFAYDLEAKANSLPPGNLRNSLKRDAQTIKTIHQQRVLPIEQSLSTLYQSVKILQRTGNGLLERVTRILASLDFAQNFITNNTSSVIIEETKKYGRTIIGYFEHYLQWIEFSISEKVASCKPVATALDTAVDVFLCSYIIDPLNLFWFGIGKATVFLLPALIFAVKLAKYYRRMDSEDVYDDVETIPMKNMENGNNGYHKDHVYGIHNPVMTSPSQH

CD133 (Prominin-1) [3] = molecular target: T2, CD133 (Prominin-1); experiment: cell binding assay with and without anti-CD133 antibody (FIG. 17)

Molecule: AdML-VTIN, adenovirus with the VTINRSA (SEQ ID NO:12) targeting motif in the AB-loop of the fiber knob (from UniProt P11818 1-410; P11818 418-581)
- fold binding against AdMG553 (mesothelin (MSLN)): 2 fold
- fold binding against AdML-5WT (mesothelin (MSLN)): 5 fold

B1: Coxsackie adenovirus receptor (CAR) (receptor)
chain: LSITTPEEMIEKAKGETAYLPCKFTLSPEDQGPLDIEWLISPADNQKVDQVIILYSGDKIYDDYYPDLKGRVHFTSNDLKSGDASINVTNLQLSDIGTYQCKVKKAPGVANKKIHLVVLVKPSGARCYVDGSEEIGSDFKIKCEPKEGSLPLQYEWQKLSDSQKMPTSWLAEMTSSVISVKNASSEYSGTYSCTVRNRVGSDQCLLRLNVVPPSNKAGLIAGAIIGTLLALALIGLIIFCCRKKRREEKYEKEVHHDIREDVPPPKSRTSTARSYIGSNHSSLGSMSPSNMEGYSKTQYNQVPSEDFERTPQSPTLPPAKVAAPNLSRMGAIPVMIPAQSKDGSIV
notes: whole, on cells; the cell lines are human; also called Ad5 receptor; natural Ad receptor
- binding result [1]: binds

B2: AdML-TYML, adenovirus with the TYMLSRN (SEQ ID NO:106) targeting motif in the AB-loop of the fiber knob (other)
chain: MKRARPSEDTFNPVYPYDTETGPPTVPFLTPPFVSPNGFQESPPGVLSLRLSEPLVTSNGMLALKMGNGLSLDEAGNLTSQNVTTVSPPLKKTKSNINLEISAPLTVTSEALTVAAAAPLMVAGNTLTMQSQAPLTVHDSKLSIATQGPLTVSEGKLALQTSGPLTTTDSSTLTITASPPLTTATGSLGIDLKEPIYTQNGKLGLKYGAPLHVTDDLNTLTVATGPGVTINNTSLQTKVTGALGFDSQGNMQLNVAGGLRIDSQNRRLILDVSYPFDAQNQLNLRLGQGPLFINSAHNLDINYNKGLYLFTASNNSKKLEVNLSTAKGLMFDATAIAINAGDGLEFGSPNAPNTNPLKTKIGHGLEFDSNKAMVPKLGTGLSFDSTGAITVGNKNNDKLTLWTTPAPSPNTYMLSRNDAKLTLVLTKCGSQILATVSVLAVKGSLAPISGTVQSAHLIIRFDENGVLLNNSFLDPEYWNFRNGDLTEGTAYTNAVGFMPNLSAYPKSHGKTAKSNIVSQVYLNGDKTKPVTLTITLNGTQETGDTTPSAYSMSFSWDWSGHNYINEIFATSSYTFSYIAQE
notes: also called TYML virus; Ad-TYML
- viral copy number after infection (E4 qPCR) (CD133 (Prominin-1) [2]): > 5 fold
- fold binding, CD133(+) against CD133(-) 293 cells (CD133 (Prominin-1) [3]): 4 fold
